Data as given in the Human Domainome abundance scans (Beltran et al. 2025).

B1: Segment polarity protein dishevelled homolog DVL-3, residues 2 to 81; numbered along this chain, Q92997 (parent)
chain: GETKIIYHLDGQETPYLVKLPLPAERVTLADFKGVLQRPSYKFFFKSMDDDFGVVKEEISDDNAKLPCFNGRVVSWLVSA

Variants of: B1
Test: abundance fitness (aPCA) (normalised: wild type 0, dead -1); higher = more abundant; growth selection in yeast, the domain comes from the species named
Details: Homo sapiens

Abundance fitness, by site and new letter:
D49: W -0.461; T 0.111; N 0.296; C 0.013; Q -0.053; A 0.018; H 0.136; E -0.038; K 0.203; L -0.564; F -0.488; V -0.364; G -0.046; M -0.402; I -0.231; S 0.234
F43: W -0.58; N -0.565; M -0.291; T -0.695; Q -0.909; D -0.64; I -0.611; V -0.658; G -0.753; C -0.391; H -0.799; P -1.12; L -0.693; K -0.644; A -0.552
F44: K -0.818; R -0.753; C -0.689; G -0.754; V -0.756; Y -0.015; P -0.685; H -0.807; A -0.614; I -0.624; W -0.244; N -0.653; D -0.749; L -0.351; Q -0.745; E -0.683
R38: Y -0.188; A 0.009; P -0.341; L -0.114; E 0.13; F -0.142; Q -0.069; W -0.099; I -0.181; H 0.001; G -0.076; V -0.024; D 0.284; K 0.147; S 0.159; N 0.255; C 0.139; M 0.032; T 0.187
S40: V 0.134; W -0.1; N 0.167; K -0.091; F -0.157; P -0.261; E 0.003; L -0.258; A -0.024; G 0.116; D 0.282; Y 0.121; Q 0.004; C 0.045; M 0.098; R -0.254
D50: C -0.263; H -0.188; A -0.15; E -0.184; F -0.645; G 0.069; I -0.421
S47: I 0.336; G -0.336; M 0.415; K 0.324; T 0.325; E -0.726; R 0.34; F 0.011; Q -0.212; D -0.658; C 0.251; W -0.519; L 0.024; A -0.051; N 0.092; V 0.269; P -0.675; H -0.207
F45: A -0.533; D -0.775; M -0.868; S -0.856; R -0.669; Q -0.669; P -0.581; T -0.596; V -0.755; L -0.775; N -0.407; H -0.864; C -0.569; W -0.605; I -0.969; E -0.379; K -0.934
L36: T -0.824; D -0.37; R -0.528; G -0.993; E -0.728; K -0.725; Q -0.668; S -0.629; V -0.187; M -0.465; H -0.988; C -0.563; F 0.097; N -0.522; A -0.785; P -0.244
V35: H -0.301; G -0.842; T -0.167; F -0.031; N -0.375; A 0.173; L -0.164; Y -0.212; E -0.468; Q -0.218; D -0.892; K -0.365; I -0.141; S -0.257; M -0.25; C -0.074; P -0.869
M48: A 0.287; N 0.567; S 0.283; E 0.09; C 0.133; I -0.13; Q 0.089; G 0.316; R 0.204; Y 0.175
